# From paper PMC10470925 (PLOS ONE, 2023)
# Molecular target: the molecule itself
# Assay: deoxycholate-induced oligomerization, PAGE and western blot
protein,measurement,value
Staphylococcus aureus alpha-hemolysin (Hla) (natural protein) ADSDINIKTGTTDIGSNTTVKTGDLVTYDKENGMHKKVFYSFIDDKNHNKKLLVIRTKGTIAGQYRVYSEEGANKSGLAWPSAFKVQLQLPDNEVAQISDYYPRNSIDTKEYMSTLTYGFNGNVTGDDTGKIGGLIGANVSIGHTLKYVQPDFKTILESPTDKKVGWKVIFNNMVNQNWGPYDRDSWNPVYGNQLFMKTRNGSMKAADNFLDPNKASSLLSSGFSPDFATVITMDRKASKQQTNIDVIYERVRDDYQLHWTSTNWKGTNTKDKWTDRSSERYKIDWEKEEMTN,stoichiometry N,7
